Assay results reported in patent US20110002929A1 (Ablynx, published 2011).

T1: human RANK-L (human, UniProt O14788 140-317, limits assumed)
T1 construct: Soluble protein, used coated, biotinylated or labelled in ELISA, AlphaScreen, FMAT and Biacore; also called hRANK-L; soluble human RANK-L
T1 sequence (looked up): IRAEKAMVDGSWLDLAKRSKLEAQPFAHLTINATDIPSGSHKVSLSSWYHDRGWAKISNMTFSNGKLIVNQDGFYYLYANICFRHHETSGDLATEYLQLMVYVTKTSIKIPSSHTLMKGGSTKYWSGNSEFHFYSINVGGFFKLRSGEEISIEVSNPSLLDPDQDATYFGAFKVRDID

T2: mouse RANK-L (mouse, UniProt O35235 158-316, limits assumed)
T2 construct: also called murine RANK-L
T2 sequence (looked up): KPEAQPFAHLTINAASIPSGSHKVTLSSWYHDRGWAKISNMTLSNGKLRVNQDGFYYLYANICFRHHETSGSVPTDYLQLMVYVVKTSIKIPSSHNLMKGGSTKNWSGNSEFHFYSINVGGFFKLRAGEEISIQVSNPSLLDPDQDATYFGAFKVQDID


Tests used:
human RANK-L [1] = target: T1, human RANK-L; assay: AlphaScreen, biotin-hRANK-L / RANK-huFc beads
human RANK-L [2] = target: T1, human RANK-L; assay: SPR Biacore 3000, hRANK-L on CM5, 100 nM Nanobody
Procedure: (§1) Binding kinetics of the humanized versions of Nanobodu RANL13 were also analysed by Surface Plasmon Resonance (Biacore 3000). […] Nanobody binding was assessed at one concentration (100 nM). Each Nanobody was injected for 4 minutes at a flow rate of 45 μl/min to allow binding to chip-bound antigen. Next, binding buffer without Nanobody was sent over the chip at the same flow rate to allow spontaneous dissociation of bound Nanobody.

human RANK-L [3] = target: T1, human RANK-L; assay: SPR Biacore 3000, hRANK-L on CM5, 100 nM Nanobody; only indicative (one concentration)
Procedure: as §1

human RANK-L [4] = target: T1, human RANK-L; assay: AlphaScreen, biotin-hRANK-L / RANK-huFc beads; remark: listed apart in the source
human RANK-L [5] = target: T1, human RANK-L; assay: ELISA (ED50), biotin-hRANK-L on neutravidin
Procedure: (§2) Therefore 2 μg/ml neutravidin was coated overnight at 4° C. The plates were washed 5 times with 300 μl PBS and then blocked with […] 1% casein/PBS for 2 hours at room temperature. […] After extensive washing with PBS, varying concentrations of Nanobodies starting from 500 nM to 160 pM diluted in 1% casein/PBS were added to the wells and the plates were incubated for 1 hour at room temperature. Bound Nanobodies were detected by subsequent incubations of a primary mouse anti-myc antibody and a secondary anti mouse-HRP conjugate (DAKO, Glostrup, Denmark) and using TMB-H2O2 (Pierce, Rockford, Ill., USA) substrate cocktail. The reaction was stopped with H₂SO₄ and the OD was read at 450 nm.

mouse RANK-L = target: T2, mouse RANK-L; assay: ELISA, set-up as for human RANK-L
Procedure: as §2

human RANK-L [6] = target: T1, human RANK-L; assay: AlphaScreen, biotin-hRANK-L / RANK-huFc beads; remark: listed apart in the source
Procedure: To this mixture, the RANK acceptor beads and the streptavidin donor beads were added and further incubated for 1 hour at room temperature. Fluorescence was measured by reading plates on the EnVision Multilabel Plate Reader (Perkin Elmer) using an excitation wavelength of 680 nm and an emission wavelength of 520 nm.

human RANK-L [7] = target: T1, human RANK-L; assay: FMAT, ALEXA647-hRANK-L / RANK on HEK293T cells

| IC50 (human RANK-L [1]) | koff (human RANK-L [2]) | Kd (human RANK-L [3]) | kon (human RANK-L [3]) | Binder | further results |
| --- | --- | --- | --- | --- | --- |
| 0.196 nM | 0.000174 s⁻¹ | 0.264 nM | 659000 M⁻¹ s⁻¹ | RANKL13hum3 (VHH, name in Kabat numbering, also called RANL13hum3) VHH: EVQLVESGGGLVQPGGSLRLSCAASGRTFRSYPMGWFRQAPGKGREFVSSITGSGGSTYYADSVKGRFTISRDNAKNTLYLQMNSLRPEDTAVYSCAAYIRPDTYLSRDYRKYDYWGQGTLVTVSS | – |
| 3.15 nM | 0.000236 s⁻¹ | 1.56 nM | 151000 M⁻¹ s⁻¹ | RANKL18hum1 (VHH, name in Kabat numbering) VHH: EVQLVESGGGLVQPGGSLRLSCAASGFTFSRSAMGWFRQAPGKGREFVGFITGSGGTTYYGESVKGRFTISRDNAQNPVYLQMNSLRPEDTAVYYCGVYRRTYISSTYSESSEYDYWGQGTLVTVSS | – |
| 0.253 nM | 9.94e-05 s⁻¹ | 0.232 nM | 429000 M⁻¹ s⁻¹ | RANKL18hum5 (VHH) VHH: EVQLVESGGGLVQPGGSLRLSCAASGRTFSRSAMGWFRQAPGKGREFVGFITGSGGTTYYGESVKGRFTISRDNAQNPVYLQMNSLRPEDTAVYYCAVYRRTYISSTYSESSEYDYWGQGTLVTVSS | – |
| 0.572 nM | 0.00027 s⁻¹ | 1.5 nM | – | RANKL18hum7 (VHH) VHH: EVQLVESGGGLVQPGGSLRLSCAASGRTFSRSAMGWFRQAPGKGREFVGFITGSGGTTYYADSVKGRFTISRDNAQNPLYLQMNSLRPEDTAVYYCAVYRRTYISSTYSESSEYDYWGQGTLVTVSS | – |
| 3.19 nM | 0.000173 s⁻¹ | 2.73 nM | 63400 M⁻¹ s⁻¹ | RANKL18hum2 (VHH, name in Kabat numbering) VHH: EVQLVESGGGLVQPGGSLRLSCAASGRTFSRSAMGWFRQAPGKGREFVSFITGSGGTTYYGESVKGRFTISRDNAQNPVYLQMNSLRPEDTAVYYCGVYRRTYISSTYSESSEYDYWGQGTLVTVSS | – |

The remaining lines, values behind:

| Binder | IC50 (human RANK-L [1]) | koff (human RANK-L [2]) | Kd (human RANK-L [3]) | kon (human RANK-L [3]) | further results |
| --- | --- | --- | --- | --- | --- |
| RANKL13basic (VHH, Humanized variant of RANKL13; also called RANKL13humbasic) VHH: EVQLVESGGGLVQPGGSLRLSCAASGRTFRSYPMGWFRQAPGKGREFVASITGSGGSTYYADSVKGRFTISRDNAKNTLYLQMNSLRPEDTAVYSCAAYIRPDTYLSRDYRKYDYWGQGTLVTVSS | 0.159 nM | 0.000189 s⁻¹ | 0.214 nM | 885000 M⁻¹ s⁻¹ | – |
| RANKL13hum1 (VHH) VHH: EVQLVESGGGLVQPGGSLRLSCAASGFTFRSYPMGWFRQAPGKGREFVASITGSGGSTYYADSVKGRFTISRDNAKNTLYLQMNSLRPEDTAVYSCAAYIRPDTYLSRDYRKYDYWGQGTLVTVSS | 0.123 nM | 0.000145 s⁻¹ | 0.106 nM | 1.37e+06 M⁻¹ s⁻¹ | – |
| RANKL13hum2 (VHH, name in Kabat numbering) VHH: EVQLVESGGGLVQPGGSLRLSCAASGRTFSSYPMGWFRQAPGKGREFVASITGSGGSTYYADSVKGRFTISRDNAKNTLYLQMNSLRPEDTAVYSCAAYIRPDTYLSRDYRKYDYWGQGTLVTVSS | 0.191 nM | 0.000232 s⁻¹ | 0.88 nM | 264000 M⁻¹ s⁻¹ | – |
| RANKL13hum4 (VHH, name in Kabat numbering) VHH: EVQLVESGGGLVQPGGSLRLSCAASGRTFRSYPMGWFRQAPGKGREFVASITGSGGSTYYADSVKGRFTISRDNAKNTLYLQMNSLRPEDTAVYYCAAYIRPDTYLSRDYRKYDYWGQGTLVTVSS | 0.223 nM | 0.000204 s⁻¹ | 0.538 nM | 379000 M⁻¹ s⁻¹ | – |
| RANKL133 (VHH, Bivalent Nanobody; also called RANKL13-30GS-RANKL13) EVQLVESGGGLVQAGGSLRLSCAASGRTFRSYPMGWFRQAPGKEREFVASITGSGGSTYYADSVKGRFTISRDNAKNTVYLQMNSLRPEDTAVYSCAAYIRPDTYLSRDYRKYDYWGQGTQVTVSSGGGGSGGGGSGGGGSGGGGSGGGGSGGGGSEVQLVESGGGLVQAGGSLRLSCAASGRTFRSYPMGWFRQAPGKEREFVASITGSGGSTYYADSVKGRFTISRDNAKNTVYLQMNSLRPEDTAVYSCAAYIRPDTYLSRDYRKYDYWGQGTQVTVS | – | – | – | – | IC50 (human RANK-L [4]): 0.026 nM |
| RANKL8 (VHH, not shown: c-myc and His6 tags) VHH: EVQLVESGGGSVQPGGSLRLSCAASGGTFSRYAMGWFRQAPGKEREFVSAISVGGTYQYYVDSVKGRFTISRDNAESTVYLQMNSLKPEDTAVYYCAGDASPYGYLREYTATRFDYWGQGTQVTVSS | – | – | – | – | EC50 (human RANK-L [5]): 0.652 nM; binding result (mouse RANK-L): no binding (tested: 500 nM to 160 pM); IC50 (human RANK-L [6]): 0.755 nM |
| RANKL12 (VHH, not shown: c-myc and His6 tags) VHH: EVQLVESGGGWMQAGGSLRLSCAASGRTFTMAWFRQAPGKEREFVAAITGSGRSTYYTDSVKGRFTISRDNAKNTAYLQMKSLKPEDTAVYYCAGLRGLGLEYDSAKSYSYWGQGTQVTVSS | – | – | – | – | EC50 (human RANK-L [5]): 0.399 nM; binding result (mouse RANK-L): no binding (tested: 500 nM to 160 pM); IC50 (human RANK-L [6]): 0.627 nM |
| RANKL183biv (VHH, Bivalent Nanobody; also called RANKL18-30GS-RANKL18) EVQLVESGGGLVQAGGSLRLSCAASGRTFSRSAMGWFRQAPGKEREFVGFITGSGGTTYYGESVKGRFTISRDNAQNPVYLQMNSLKPEDTAVYYCGVYRRTYISSTYSESSEYDYWGQGTQVTVSSGGGGSGGGGSGGGGSGGGGSGGGGSGGGGSEVQLVESGGGLVQAGGSLRLSCAASGRTFSRSAMGWFRQAPGKEREFVGFITGSGGTTYYGESVKGRFTISRDNAQNPVYLQMNSLKPEDTAVYYCGVYRRTYISSTYSESSEYDYWGQGTQVTVSS | – | – | – | – | IC50 (human RANK-L [7]): 0.052 nM; IC50 (human RANK-L [4]): 0.049 nM |
| RANKL131 (VHH, Bivalent Nanobody; also called RANKL13-9GS-RANKL13) EVQLVESGGGLVQAGGSLRLSCAASGRTFRSYPMGWFRQAPGKEREFVASITGSGGSTYYADSVKGRFTISRDNAKNTVYLQMNSLRPEDTAVYSCAAYIRPDTYLSRDYRKYDYWGQGTQVTVSSGGGGSGGGSEVQLVESGGGLVQAGGSLRLSCAASGRTFRSYPMGWFRQAPGKEREFVASITGSGGSTYYADSVKGRFTISRDNAKNTVYLQMNSLRPEDTAVYSCAAYIRPDTYLSRDYRKYDYWGQGTQVTVSS | – | – | – | – | IC50 (human RANK-L [7]): 0.023 nM; IC50 (human RANK-L [4]): 0.019 nM |
| RANKL182biv (VHH, Bivalent Nanobody; also called RANKL18-20GS-RANKL18) EVQLVESGGGLVQAGGSLRLSCAASGRTFSRSAMGWFRQAPGKEREFVGFITGSGGTTYYGESVKGRFTISRDNAQNPVYLQMNSLKPEDTAVYYCGVYRRTYISSTYSESSEYDYWGQGTQVTVSSGGGGSGGGGSGGGGSGGGGSEVQLVESGGGLVQAGGSLRLSCAASGRTFSRSAMGWFRQAPGKEREFVGFITGSGGTTYYGESVKGRFTISRDNAQNPVYLQMNSLKPEDTAVYYCGVYRRTYISSTYSESSEYDYWGQGTQVTVSS | – | – | – | – | IC50 (human RANK-L [7]): 0.076 nM; IC50 (human RANK-L [4]): 0.089 nM |
| RANKL181biv (VHH, Bivalent Nanobody; also called RANKL18-9GS-RANKL18) EVQLVESGGGLVQAGGSLRLSCAASGRTFSRSAMGWFRQAPGKEREFVGFITGSGGTTYYGESVKGRFTISRDNAQNPVYLQMNSLKPEDTAVYYCGVYRRTYISSTYSESSEYDYWGQGTQVTVSSGGGGSGGGSEVQLVESGGGLVQAGGSLRLSCAASGRTFSRSAMGWFRQAPGKEREFVGFITGSGGTTYYGESVKGRFTISRDNAQNPVYLQMNSLKPEDTAVYYCGVYRRTYISSTYSESSEYDYWGQGTQVTVSS | – | – | – | – | IC50 (human RANK-L [7]): 0.134 nM; IC50 (human RANK-L [4]): 0.113 nM |
| RANKL11 (VHH, not shown: c-myc and His6 tags) VHH: EVQLVESGGGLVQAGGSLRLSCAASGRTFSSKTMGWFRQPPGNEREFVAAITPTSRTTYYADSVKGRFTISRDNAKNTVSLQMNSLKFEDTAAYYCVAVRRYGSPPHDGSSYEYWGQGTQVTVSS | – | – | – | – | EC50 (human RANK-L [5]): 0.517 nM; binding result (mouse RANK-L): no binding (tested: 500 nM to 160 pM); IC50 (human RANK-L [6]): 1.17 nM |
